The target in this assay is human VLA-1 (alpha 1/beta 1, CD49a/CD29) on IL-2 stimulated human PBMC / T cells (human) (UniProt P56199). Nature of the assay: cell-based or functional assay.

Hu IgG4 (antibody) gave a % adhesion of IL-2 activated T cells to collagen IV vs no antibody, 10 µg/ml, +PMA of 109%; a % adhesion of IL-2 activated T cells to collagen IV vs no antibody, 10 µg/ml, -PMA of 106%; a % adhesion of T cells to collagen IV vs no antibody, 5 nM mAb, 10 ng/ml PMA of 95.6%; a % adhesion of T cells to collagen IV vs no antibody, 5 nM mAb, no PMA of 9.5%.
